From US20030144205A1

Molecular target: T1, mouse RFPL4, full-length (amino acid residues 1-287) (mouse) (UniProt Q8VH31)
T1 sequence (looked up): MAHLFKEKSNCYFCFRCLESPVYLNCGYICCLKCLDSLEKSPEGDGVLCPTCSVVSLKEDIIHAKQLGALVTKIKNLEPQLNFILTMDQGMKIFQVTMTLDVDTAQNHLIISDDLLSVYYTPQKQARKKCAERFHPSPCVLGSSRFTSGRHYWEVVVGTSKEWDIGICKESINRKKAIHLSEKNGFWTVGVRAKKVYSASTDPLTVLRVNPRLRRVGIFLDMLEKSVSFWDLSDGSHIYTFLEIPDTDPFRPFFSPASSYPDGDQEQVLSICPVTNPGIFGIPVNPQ
Test: yeast two-hybrid mating screen of the ovary cDNA library with pGBKT7-RFPL4 as bait

# of clones: 1 clones
B1: Phosphoserine/threonine/tyrosine interaction protein (STYX) (protein, mouse, UniProt Q60969 1-223, looked up)
chain: MEDVKLEFPSLPQCKDDAEEWTYPMRREMQEVLPGLFLGPYSSAMKSKLPILQKHGITHIICIRQNIEANFIKPNFQQLFRYLVLDIADNPVENIIRFFPMTKEFIDGSLQNGGKVLVHGNAGISRSAAFVIAYIMETFGMKYRDAFAYVQERRFCINPNAGFVHQLQEYEAIYLAKLTIQMMSPLQIERSLAVHSGTTGSVKRTHEEDDDFGNMQVATAQNG
